Assay results reported in the supplement of paper PMC10567573.
± gives the standard deviation.

Test: protein stability index of a GFP-peptide fusion (GPS, HEK-293T) (PSI 1-6); higher = more stable
Details: c terminus: a fixed tail appended
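Also: 24-mer peptide tiles fused after GFP, lentivirally expressed, FACS-sorted into six equal bins by GFP/DsRed ratio, decoded by Illumina sequencing, PSI is the read-weighted mean bin number.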

Sequence | protein stability index (treatment: DMSO) | protein stability index (treatment: MLN4924 1 uM, 8 h)
YGFYDECLRKYGNANVWKYFTDLF [PPP2CA] | 2.5 ± 0.21 | 2.67 ± 0.38
VLERAACLRRCKRTLPAFQVPYPP [P3H4] | 2.16 ± 0.29 | 2.16 ± 0.19
IFMLCTLVLAIPLLLILVSYVHIL [OR10K2] | 3.35 ± 0.26 | 3.18 ± 0.36
YDFIVTKARGKSGPLFNFDVHDDV [FAM50A] | 2.65 ± 0.23 | 2.78 ± 0.45
EEPNGQIQGYRVYYTMDPTQHVNN [PTPRD] | 3.18 ± 0.19 | 3.17 ± 0.34
FLSLEASTETLVHVSDEDNNADLC [DLC1] | 5.11 ± 0.27 | 5.2 ± 0.12
ELGVIFYNCSCLVLDLQRIFALYS [PLD5] | 3.24 ± 0.39 | 3.29 ± 1
RFHYDRNPGTDAVAQTSLEEFNVL [FATE1] | 3.74 ± 0.24 | 3.78 ± 0.11
ETAPLTLESLPTDPLLLILSFLDY [FBXO3] | 2.36 ± 0.19 | 2.28 ± 0.19
YWGSPEEQSLLSRWNPWSTEVPYA [TPRG1] | 2.09 ± 0.14 | 2.23 ± 0.28
SVGGVPGGTGSGDGNKIFLCHCGK [ZBTB22] | 3.51 ± 0.19 | 3.73 ± 0.47
IEEYMVHVEEHFQLLARRMQVDKK [FUT8] | 3.06 ± 0.35 | 3.2 ± 0.27
EAAKQMRSRGKVLKTKDGKLPFCA [CPOX] | 3.89 ± 0.4 | 3.68 ± 0.23
ISSTSTKRTYWPDLDAKIREALVL [PLD5] | 2.38 ± 0.39 | 2.43 ± 0.49
NKLALQYGCKVADIKKVNNFIREQ [LYSMD4] | 2.25 ± 0.22 | 2.38 ± 0.42
PPLWAASAAGHLKVVQSLLNHGAS [FEM1C] | 2.58 ± 0.43 | 2.76 ± 0.23
IAENGVSERDSEAAKQNHVTADDF [EHMT1] | 5.39 ± 0.15 | 5.42 ± 0.11
IRRAYPDANLLNDRVLRAMLKAEE [CCND1] | 2.96 ± 0.24 | 3.52 ± 0.47
FMYSGVENKQVVIIHHMRLQAKAL [INTS4] | 2.48 ± 0.33 | 2.52 ± 0.63
CIPATVRSSFANQGEICLCTSRIF [ALDH8A1] | 2.28 ± 0.52 | 2.38 ± 0.21
TFSMPSDSHVSSCSEDWVGYQRKC [CD69] | 3.64 ± 0.23 | 3.51 ± 0.23
AVKKFVESEDDPVVKKIALREIRM [CDKL4] | 2.52 ± 0.25 | 2.98 ± 0.26
EDTTEEAQRRRMDEISDHAKVLTL [EIF5] | 5.24 ± 0.11 | 5.18 ± 0.2

Sequence | protein stability index (treatment: DMSO) | protein stability index (treatment: MLN4924 1 uM, 8 h)
WKITIYDQENFQGKRMEFTSSCPN [CRYBA1] | 2.26 ± 0.38 | 2.15 ± 0.23
SRTQEPSLGKQKVFIIRKSLLDEL [SOAT2] | 2.04 ± 0.31 | 2.23 ± 0.34
GILERYWLSSRAAAIKVNDSVPFH [MYORG] | 2.02 ± 0.42 | 1.78 ± 0.28
SESGADTISVNQTRVNLSSDTEST [DLC1] | 5.33 ± 0.4 | 5.3 ± 0.58
IQGADTIRCVYILDPWFAGSSNVG [CRY1] | 2.81 ± 0.56 | 2.6 ± 0.54
PYKCVQPDCGKAFVSRYKLMRHMA [PLAGL1] | 2.23 ± 0.31 | 2.08 ± 0.21
MLAEIFCQTGGVEDQEEWHAQVVE [ZBED1] | 3.05 ± 0.2 | 3.49 ± 0.4
GGNHFRGTSDYDDVLSCEYYSPIL [KLHL13] | 2.81 ± 0.096 | 2.77 ± 0.18
ISPGKNATGMEVGWYRPPFSRVVH [MOG] | 2.45 ± 0.17 | 2.69 ± 0.23
LTVRKSQSEPSEQDGVLDLSTKKS [LCOR] | 5.15 ± 0.25 | 5.22 ± 0.24
VFSFDLHEPLSKERVEAFSDGVYA [TMEM175] | 3.1 ± 0.24 | 3.24 ± 0.28
LELLVNNGADVNIQSKDGKSPLHM [ANKRD44] | 4.06 ± 0.23 | 4.01 ± 0.3
SSALSQSGGGSTSAAGIEARSRAL [SPACA3] | 4.76 ± 0.41 | 4.82 ± 0.064
FPAKYIYDPWNAPEGIQKVAKCLI [CRY1] | 2.85 ± 0.39 | 2.43 ± 0.32
ETDDPRRYQKYGYIGTHEYPHFSH [OAS1] | 2.88 ± 0.15 | 3 ± 0.19
VSKGAESSRSSEESSSDSGSSDSE [BRD3] | 5.61 ± 0.24 | 5.6 ± 0.41
LRNTLKSTSEDSLVKQECIKEVVE [FAN1] | 4.63 ± 0.3 | 5.01 ± 0.23
DDDDNLPQLKKESELPFVPNYLAN [ANKRD40] | 4.77 ± 0.12 | 4.84 ± 0.076
LEEFQLALKHYVESASSQSGCLRI [NECAB1] | 2.21 ± 0.36 | 2.16 ± 0.17
LSASSPRMLHRSTQTTNDGVCQSM [ZMYND11] | 4 ± 0.24 | 4.34 ± 0.18
PWNCILLTKDEAAAHLKLTSIEEG [IQUB] | 3.12 ± 0.1 | 3.44 ± 0.07
IIQYRLPMKKNNNLYSWDDFMELG [ACSBG2] | 2.12 ± 0.32 | 1.98 ± 0.25
EGPDLVPAALGSLTTAQIARSVWR [HES6] | 3.33 ± 0.39 | 3.59 ± 0.34

Sequence | protein stability index (treatment: DMSO) | protein stability index (treatment: MLN4924 1 uM, 8 h)
HEQALFIYVHILKDTRMAEEYCHK [VPS39] | 2.57 ± 0.62 | 2.4 ± 0.59
GSSRPCLDFLQEVTRQPRNLQDLC [ASB7] | 3.9 ± 0.31 | 3.97 ± 0.23
KYDPTIEDSYRKQVEVDAQQCMLE [RAP1B] | 4.55 ± 0.12 | 4.66 ± 0.11
RDVKPENFLIGRQGNKKEHVIHII [CSNK1G1] | 2.26 ± 0.42 | 2.33 ± 0.21
PPTPGRPSLGPALSTGPRGLCAMP [VENTX] | 3.86 ± 0.37 | 3.73 ± 0.26
QCCQTEIIELRRTVNALEIELQAQ [KRT36] | 2.95 ± 0.49 | 2.76 ± 0.4
RCKEENTIILQQLLPLRTKVAKLL [NLN] | 2.47 ± 0.25 | 2.21 ± 0.17
GSSYPTTTISYLPHAPPFAGGHPA [JUNB] | 3.12 ± 0.14 | 3.09 ± 0.13
FKMPWKPTHPSSTHALAEWASRRE [CDC25B] | 3.54 ± 0.12 | 3.63 ± 0.36
RHWHRPVLMAVSVHSERKLLPLVT [SCNN1D] | 2.23 ± 0.37 | 2.11 ± 0.26
NNIMKCRSRYDGHRIWMYNCHIGG [LOXL2] | 2.5 ± 0.69 | 2.33 ± 0.42
GPYDPNSVRISFAKGWGPCYSRQF [SMAD6] | 2.19 ± 0.17 | 2.25 ± 0.18
EQCPVIDSQAPAGSLDLVPGGLTL [SPDEF] | 4.07 ± 0.23 | 4.24 ± 0.13
KCRMEESNAERGTAEPFPRLHNLY [CBY2] | 2.85 ± 0.27 | 2.78 ± 0.15
QLGYLLFGTQVENFSTFIKCIFTQ [PKD2L1] | 2.83 ± 0.41 | 3.27 ± 0.55
KKIFAQLDSIIDDRVILSSSTSCL [CRYL1] | 2.35 ± 0.15 | 2.58 ± 0.3
RFIHLVTGCVLGSSGKVLPKWGWE [POMT2] | 3.51 ± 1.3 | 3.15 ± 0.63
KDSHDPLPSWAELLRPKYRAPQGC [PBXIP1] | 3.01 ± 0.37 | 3.19 ± 0.2
QLMEKLREKQLSHSLRAVSTDPPH [BEX1] | 3.35 ± 0.37 | 3.27 ± 0.34
TDSKELSMAKEVIAKELSKTYQET [ZBED1] | 4.91 ± 0.1 | 4.82 ± 0.57
DSASPVEDTSNDESSILGTDIDLQ [M1AP] | 5.62 ± 0.2 | 5.62 ± 0.21
GTPADTGDLSPGHGASAPSVSREA [PWWP2B] | 5.29 ± 0.18 | 5.56 ± 0.22
LNDRLASYLDKVRALEEANTELEV [KRT17] | 4.03 ± 0.11 | 4.17 ± 0.17

Sequence | protein stability index (treatment: DMSO) | protein stability index (treatment: MLN4924 1 uM, 8 h)
STQIRALTEQQEQLRGQLQDLDSR [RASAL3] | 5.14 ± 0.27 | 5.12 ± 0.19
LALHPEAPGLYNHLPWQYHAGQGG [CCDC3] | 3.2 ± 0.5 | 2.63 ± 0.28
ASGSFPSQVTATSGNGDFGDWSAF [CLINT1] | 3.4 ± 0.23 | 3.87 ± 0.12
VDCTEIFGGNPRFLSLHRAHLGEE [ZNF263] | 3.11 ± 0.4 | 3.24 ± 0.25
VLLEEPLPLETARESPSFKLEPME [ZNF263] | 4.02 ± 0.24 | 4.284 ± 0.038
VRLRTLLCKVLGVLFSVAGGLFVG [CLCN6] | 2.87 ± 0.14 | 2.88 ± 0.17
LVDQSKKANSPLKGHERTVQYLQH [VPS39] | 4 ± 0.3 | 3.85 ± 0.32
AADGETTATEELEKTQDDLMKHQT [EPB41L3] | 5.62 ± 0.14 | 5.64 ± 0.14
DGFFYFFHGTRQYKFDPKTKRILT [MMP1] | 2.14 ± 0.48 | 2.28 ± 0.23
GMKIDLIDGKGRGVIATKQFSRGD [KMT5A] | 3.49 ± 0.15 | 4 ± 0.63
VKEELSQKFDTLYAILDEKKSELL [TRIM63] | 3.6 ± 0.41 | 3.58 ± 0.17
NYRIMSYFKEAELKDLLLQVGRGL [WEE1] | 2.46 ± 0.87 | 2.15 ± 0.4
MDATNAFKKTAYELLDEKLLARGT [FEM1A] | 3.8 ± 0.23 | 3.85 ± 0.25
QASAAPAAPLPERNSLSAIFNNVM [SLC29A1] | 3.55 ± 0.094 | 3.5 ± 0.14
LALLLCAGQVTALPVNSPMNKGDT [CHGA] | 2.68 ± 0.83 | 2.59 ± 0.5
SLRGRAWQYLSGGKVKLQQNPGKF [TBC1D10A] | 3.13 ± 0.52 | 2.94 ± 0.29
YKQLGSAGEGLPQVYYFGPCGKYN [CSNK1G1] | 3.05 ± 0.65 | 2.16 ± 0.2
MLGRLGYLNHVRAASPQDLAGGYT [MNAT1] | 2.61 ± 0.14 | 2.59 ± 0.37
RHSKGLQILGQTLKASMRELGLLI [KCNA1] | 2.96 ± 0.5 | 2.89 ± 0.15
TKLHDIDGVPHLILIASRDIAAGE [KMT5A] | 2.36 ± 0.33 | 2.33 ± 0.25
GDHERAIDFSPYLEPLGAPQAPAP [CEBPB] | 4.56 ± 0.16 | 4.55 ± 0.24
